Data as given in the supplement of paper PMC6757056.
± gives the standard deviation of the averaged measurements.

B1: library; a variant is named by its letters at N, in order (parent)
chain: GCUGUCACCGAGAAACUGUGAAGUAUAUCUUAAACCUGGGCACUUAAAAGAUAUAUGGAGUUAGUAGUGCAACCUGCUCGGUCUGAUGAGUCCNNNNNNGGACGAAACAGC

Experiments:
cyclic di-GMP [1] = variants of: B1; assay: normalized RNA/DNA level without ligand (relative to sTRSVctl = 100) (log10 (% of sTRSVctl)); HEK293T; ligand: cyclic di-GMP (c-di-GMP-II aptamer); higher = less ribozyme self-cleavage, higher mRNA level; settings: reporter: mCherry (pCS4076), ligand present: no
Summary of the method: (§1)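 HEK293T cells were transfected with library plasmids carrying ribozyme switches linked to an mCherry reporter, or an eGFP reporter in some ligand experiments, at 4 µg per well of a 6-well plate, with any ligand added 1 h beforehand. After 72 h, total RNA was extracted with EDTA, reverse-transcribed, amplified, barcoded and sequenced. RNA level was defined as RNA reads over DNA reads, normalized to a spiked-in non-cleaving sequence or to the top-ranked sequences. That value was multiplied by 100 and converted to log10, the top set was 25 sequences, and only sequences with ≥100 DNA reads were retained.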

cyclic di-GMP [2] = variants of: B1; assay: normalized RNA/DNA level with ligand (relative to sTRSVctl = 100) (log10 (% of sTRSVctl)); HEK293T; ligand: cyclic di-GMP (c-di-GMP-II aptamer); ligand concentration (+) RNA-Seq: 1 mM; higher = less ribozyme self-cleavage, higher mRNA level; settings: reporter: mCherry (pCS4076), ligand present: yes
Summary of the method: as §1

Variant | normalized RNA/DNA level without ligand (log10) (cyclic di-GMP [1]) | normalized RNA/DNA level with ligand (log10) (cyclic di-GMP [2])
GCUGUCACCGAGAAACUGUGAAGUAUAUCUUAAACCUGGGCACUUAAAAGAUAUAUGGAGUUAGUAGUGCAACCUGCUCGGUCUGAUGAGUCCGGGCCCGGACGAAACAGC | 1.92 ± 0.07 | 1.99 ± 0.056
GCUGUCACCGAGAAACUGUGAAGUAUAUCUUAAACCUGGGCACUUAAAAGAUAUAUGGAGUUAGUAGUGCAACCUGCUCGGUCUGAUGAGUCCAGGCCAGGACGAAACAGC | 1.721 ± 0.017 | 1.85 ± 0.096
GCUGUCACCGAGAAACUGUGAAGUAUAUCUUAAACCUGGGCACUUAAAAGAUAUAUGGAGUUAGUAGUGCAACCUGCUCGGUCUGAUGAGUCCAGGCCCGGACGAAACAGC | 1.86 ± 0.05 | 1.95 ± 0.1
GCUGUCACCGAGAAACUGUGAAGUAUAUCUUAAACCUGGGCACUUAAAAGAUAUAUGGAGUUAGUAGUGCAACCUGCUCGGUCUGAUGAGUCCAGGCCUGGACGAAACAGC | 1.768 ± 0.013 | 1.89 ± 0.099
GCUGUCACCGAGAAACUGUGAAGUAUAUCUUAAACCUGGGCACUUAAAAGAUAUAUGGAGUUAGUAGUGCAACCUGCUCGGUCUGAUGAGUCCCGGCAGGGACGAAACAGC | 1.792 ± 0.0062 | 1.86 ± 0.077
GCUGUCACCGAGAAACUGUGAAGUAUAUCUUAAACCUGGGCACUUAAAAGAUAUAUGGAGUUAGUAGUGCAACCUGCUCGGUCUGAUGAGUCCAGGCACGGACGAAACAGC | 1.707 ± 0.011 | 1.84 ± 0.12
GCUGUCACCGAGAAACUGUGAAGUAUAUCUUAAACCUGGGCACUUAAAAGAUAUAUGGAGUUAGUAGUGCAACCUGCUCGGUCUGAUGAGUCCAGGCAAGGACGAAACAGC | 1.45 ± 0.082 | 1.6 ± 0.11
GCUGUCACCGAGAAACUGUGAAGUAUAUCUUAAACCUGGGCACUUAAAAGAUAUAUGGAGUUAGUAGUGCAACCUGCUCGGUCUGAUGAGUCCAGGCAUGGACGAAACAGC | 1.63 ± 0.018 | 1.83 ± 0.11
GCUGUCACCGAGAAACUGUGAAGUAUAUCUUAAACCUGGGCACUUAAAAGAUAUAUGGAGUUAGUAGUGCAACCUGCUCGGUCUGAUGAGUCCCGGAUGGGACGAAACAGC | 1.64 ± 0.057 | 1.77 ± 0.17
GCUGUCACCGAGAAACUGUGAAGUAUAUCUUAAACCUGGGCACUUAAAAGAUAUAUGGAGUUAGUAGUGCAACCUGCUCGGUCUGAUGAGUCCCGGCCCGGACGAAACAGC | 1.937 ± 0.016 | 1.94 ± 0.061
GCUGUCACCGAGAAACUGUGAAGUAUAUCUUAAACCUGGGCACUUAAAAGAUAUAUGGAGUUAGUAGUGCAACCUGCUCGGUCUGAUGAGUCCCGGCCGGGACGAAACAGC | 1.81 ± 0.035 | 1.87 ± 0.11
GCUGUCACCGAGAAACUGUGAAGUAUAUCUUAAACCUGGGCACUUAAAAGAUAUAUGGAGUUAGUAGUGCAACCUGCUCGGUCUGAUGAGUCCCGGCCUGGACGAAACAGC | 1.74 ± 0.018 | 1.88 ± 0.11
GCUGUCACCGAGAAACUGUGAAGUAUAUCUUAAACCUGGGCACUUAAAAGAUAUAUGGAGUUAGUAGUGCAACCUGCUCGGUCUGAUGAGUCCUGGCAGGGACGAAACAGC | 1.847 ± 0.0028 | 1.93 ± 0.063
GCUGUCACCGAGAAACUGUGAAGUAUAUCUUAAACCUGGGCACUUAAAAGAUAUAUGGAGUUAGUAGUGCAACCUGCUCGGUCUGAUGAGUCCUGGCACGGACGAAACAGC | 1.72 ± 0.043 | 1.86 ± 0.024
GCUGUCACCGAGAAACUGUGAAGUAUAUCUUAAACCUGGGCACUUAAAAGAUAUAUGGAGUUAGUAGUGCAACCUGCUCGGUCUGAUGAGUCCUGGCAAGGACGAAACAGC | 1.64 ± 0.028 | 1.8 ± 0.1
GCUGUCACCGAGAAACUGUGAAGUAUAUCUUAAACCUGGGCACUUAAAAGAUAUAUGGAGUUAGUAGUGCAACCUGCUCGGUCUGAUGAGUCCGGGAUUGGACGAAACAGC | 1.66 ± 0.024 | 1.77 ± 0.12
GCUGUCACCGAGAAACUGUGAAGUAUAUCUUAAACCUGGGCACUUAAAAGAUAUAUGGAGUUAGUAGUGCAACCUGCUCGGUCUGAUGAGUCCAGGAUUGGACGAAACAGC | 1.49 ± 0.032 | 1.73 ± 0.12
GCUGUCACCGAGAAACUGUGAAGUAUAUCUUAAACCUGGGCACUUAAAAGAUAUAUGGAGUUAGUAGUGCAACCUGCUCGGUCUGAUGAGUCCUGGCCCGGACGAAACAGC | 1.88 ± 0.062 | 1.96 ± 0.094
GCUGUCACCGAGAAACUGUGAAGUAUAUCUUAAACCUGGGCACUUAAAAGAUAUAUGGAGUUAGUAGUGCAACCUGCUCGGUCUGAUGAGUCCUGGCCGGGACGAAACAGC | 1.9 ± 0.067 | 1.96 ± 0.1
GCUGUCACCGAGAAACUGUGAAGUAUAUCUUAAACCUGGGCACUUAAAAGAUAUAUGGAGUUAGUAGUGCAACCUGCUCGGUCUGAUGAGUCCUGGCCAGGACGAAACAGC | 1.79 ± 0.029 | 1.86 ± 0.12
GCUGUCACCGAGAAACUGUGAAGUAUAUCUUAAACCUGGGCACUUAAAAGAUAUAUGGAGUUAGUAGUGCAACCUGCUCGGUCUGAUGAGUCCUGGCCUGGACGAAACAGC | 1.84 ± 0.12 | 1.97 ± 0.15
GCUGUCACCGAGAAACUGUGAAGUAUAUCUUAAACCUGGGCACUUAAAAGAUAUAUGGAGUUAGUAGUGCAACCUGCUCGGUCUGAUGAGUCCGGGCAAGGACGAAACAGC | 1.72 ± 0.046 | 1.8 ± 0.026
GCUGUCACCGAGAAACUGUGAAGUAUAUCUUAAACCUGGGCACUUAAAAGAUAUAUGGAGUUAGUAGUGCAACCUGCUCGGUCUGAUGAGUCCGGGCACGGACGAAACAGC | 1.78 ± 0.042 | 1.89 ± 0.074
GCUGUCACCGAGAAACUGUGAAGUAUAUCUUAAACCUGGGCACUUAAAAGAUAUAUGGAGUUAGUAGUGCAACCUGCUCGGUCUGAUGAGUCCGGGCAGGGACGAAACAGC | 1.823 ± 0.015 | 1.89 ± 0.045
GCUGUCACCGAGAAACUGUGAAGUAUAUCUUAAACCUGGGCACUUAAAAGAUAUAUGGAGUUAGUAGUGCAACCUGCUCGGUCUGAUGAGUCCUGGAUUGGACGAAACAGC | 1.669 ± 0.0092 | 1.81 ± 0.13
GCUGUCACCGAGAAACUGUGAAGUAUAUCUUAAACCUGGGCACUUAAAAGAUAUAUGGAGUUAGUAGUGCAACCUGCUCGGUCUGAUGAGUCCUGGAUGGGACGAAACAGC | 1.62 ± 0.027 | 1.82 ± 0.11
